This passage reports Km and kcat results from paper PMC8203652, “Facile fabrication of antibacterial and antiviral perhydrolase-polydopamine composite coatings” (Scientific Reports, 2021).

Substrate in this data set: CC(=O)OCC(C)OC(C)=O
The data set can be described thus: purified protein. As to conditions: free enzyme; 200 mM H2O2 constant, PGD 3-100 mM, PBS; apparent (two-substrate reaction). It is filed as biochemical, Mycolicibacterium smegmatis.

B1: AcT (perhydrolase S54V) (Mycolicibacterium smegmatis MC2 155; S54V) (protein)
chain: MAKRILCFGDSLTWGWVPVEDGAPTERFAPDVRWTGVLAQQLGADFEVIEEGLVARTTNIDDPTDPRLNGASYLPSCLATHLPLDLVIIMLGTNDTKAYFRRTPLDIALGMSVLVTQVLTSAGGVGTTYPAPKVLVVSPPPLAPMPHPWFQLIFEGGEQKTTELARVYSALASFMKVPFFDAGSVISTDGVDGIHFTEANNRDLGVALAEQVRSLL
notes: synthetic gene in pET28a, N-terminal His8 tag and thrombin site (LVPRGS), expressed in E. coli BL21(DE3), Ni-NTA purified; MW 180 kDa printed; S54V printed in the introduction only
For the protein B1, the Km (as a rule, the substrate concentration at which the rate is half of its maximum) was 13 mM and the kcat (as a rule, the maximal rate divided by the concentration of active sites) was 4700 s⁻¹.
